Measurements as given in patent US20210346432A1 (Memorial Sloan Kettering, published 2021).
No end group written: not given here. *: point of attachment. Biotin = O=C1N[C@H]2[C@H](CS[C@H]2CCCCC(=O)*)N1

Assays:
Test in all cases: peptide ELISA on streptavidin plate
ET140-p2 = target: T1, ET140-p2 (human)
T1 construct: also called peptide 2
T1 peptide: Biotin-SGSGQMAGQCSQNEYFDSL
Experimental: (§1) The peptides were coated onto Streptavidin plates at 2 ug/mL in PBST (PBS+0.05% Tween-20). After washing and blocking with 3% BSA. […] “mIgG1” used in all Examples represents that the variable region is fully human and the Fc part is mouse IgG1. Then HRP anti-mouse IgG detection antibody was added to each well. Finally, the color was developed using TMB substrate. A450 was recorded for data analysis.

ET140-p3 = target: T2, ET140-p3 (human)
T2 construct: also called peptide 3
T2 peptide: Biotin-SGSGMAGQCSQNEYFDSLL
Experimental: as §1

ET140-p5 = target: T3, ET140-p5 (human)
T3 construct: also called peptide 5
T3 peptide: Biotin-SGSGGQCSQNEYFDSLLHA
Experimental: as §1

ET140-p6 = target: T4, ET140-p6 (human, cysteine pairing not given here)
T4 construct: also called peptide 6
T4 peptide: Biotin-SGSGQCSQNEYFDSLLHAC
Experimental: as §1

ET140-p14 = target: T5, ET140-p14 (human, cysteine pairing not given here)
T5 construct: also called peptide 14
T5 peptide: Biotin-SGSGDSLLHACIPCQLRCS
Experimental: as §1

ET140-p15 = target: T6, ET140-p15 (human, cysteine pairing not given here)
T6 construct: also called peptide 15
T6 peptide: Biotin-SGSGSLLHACIPCQLRCSS
Experimental: as §1

ET140-p17 = target: T7, ET140-p17 (human, cysteine pairing not given here)
T7 construct: also called peptide 17
T7 peptide: Biotin-SGSGLHACIPCQLRCSSNT
Experimental: as §1

ET140-p19 = target: T8, ET140-p19 (human, cysteine pairing not given here)
T8 construct: also called peptide 19
T8 peptide: Biotin-SGSGACIPCQLRCSSNTPP
Experimental: as §1

ET140-p20 = target: T9, ET140-p20 (human, cysteine pairing not given here)
T9 construct: also called peptide 20
T9 peptide: Biotin-SGSGCIPCQLRCSSNTPPL
Experimental: as §1

ET140-p22 = target: T10, ET140-p22 (human, cysteine pairing not given here)
T10 construct: also called peptide 22
T10 peptide: Biotin-SGSGPCQLRCSSNTPPLTC
Experimental: as §1

ET140-p23 = target: T11, ET140-p23 (human, cysteine pairing not given here)
T11 construct: also called peptide 23
T11 peptide: Biotin-SGSGCQLRCSSNTPPLTCQ
Experimental: as §1

ET140-p24 = target: T12, ET140-p24 (human, cysteine pairing not given here)
T12 construct: also called peptide 24
T12 peptide: Biotin-SGSGQLRCSSNTPPLTCQR
Experimental: as §1

ET140-p27 = target: T13, ET140-p27 (human, cysteine pairing not given here)
T13 construct: also called peptide 27
T13 peptide: Biotin-SGSGCSSNTPPLTCQRYCN
Experimental: as §1

ET140-p28 = target: T14, ET140-p28 (human, cysteine pairing not given here)
T14 construct: also called peptide 28
T14 peptide: Biotin-SGSGSSNTPPLTCQRYCNA
Experimental: as §1

ET140-p30 = target: T15, ET140-p30 (human, cysteine pairing not given here)
T15 construct: also called peptide 30
T15 peptide: Biotin-SGSGNTPPLTCQRYCNASV
Experimental: as §1

ET140-p31 = target: T16, ET140-p31 (human, cysteine pairing not given here)
T16 construct: also called peptide 31
T16 peptide: Biotin-SGSGTPPLTCQRYCNASVT
Experimental: as §1

ET140-p32 = target: T17, ET140-p32 (human, cysteine pairing not given here)
T17 construct: also called peptide 32
T17 peptide: Biotin-SGSGPPLTCQRYCNASVTN
Experimental: as §1

ET140-p33 = target: T18, ET140-p33 (human, cysteine pairing not given here)
T18 construct: also called peptide 33
T18 peptide: Biotin-SGSGPLTCQRYCNASVTNS
Experimental: as §1

ET140-p35 = target: T19, ET140-p35 (human, cysteine pairing not given here)
T19 construct: also called peptide 35
T19 peptide: Biotin-SGSGTCQRYCNASVTNSVK
Experimental: as §1

ET140-p36 = target: T20, ET140-p36 (human, cysteine pairing not given here)
T20 construct: also called peptide 36
T20 peptide: Biotin-SGSGCQRYCNASVTNSVKG
Experimental: as §1

ET140-p37 = target: T21, ET140-p37 (human)
T21 construct: also called peptide 37
T21 peptide: Biotin-SGSGQRYCNASVTNSVKGT
Experimental: as §1

ET140-p38 = target: T22, ET140-p38 (human)
T22 construct: also called peptide 38
T22 peptide: Biotin-SGSGRYCNASVTNSVKGTN
Experimental: as §1

ET140-p39 = target: T23, ET140-p39 (human)
T23 construct: also called peptide 39
T23 peptide: Biotin-SGSGYCNASVTNSVKGTNA
Experimental: as §1

Measured: binding result

B1: ET140-153 mIgG1 (antibody, V domains shown)
VH: QVQLVQSGAEVKKPGSSVKVSCKASGGTFSSYAISWVRQAPGQGLEWMGRIIPILGIANYAQKFQGRVTITADKSTSTAYMELSSLRSEDTAVYYCARGGYYSHDMWSEDWGQGTLVTVSS
VL: LPVLTQPPSASGTPGQRVTISCSGRSSNIGSNSVNWYRQLPGAAPKLLIYSNNQRPPGVPVRFSGSKSGTSASLAISGLQSEDEATYYCATWDDNLNVHYVFGTGTKVTVLG
notes: also called ET140-3 mIgG1; ET140-3
no binding (tested: 1 ug/mL): all assays above
